B1: ZNF193 (parent)
chain: QKRYHCKECGKVFSQSAGLIQHQR

Variants of: B1
Test: protein stability index of a GFP-peptide fusion (GPS, HEK-293T) (PSI 1-6); higher = more stable
Settings: c terminus: a fixed tail appended
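Note: lentivirally expressed fusions sorted by FACS into six bins by GFP to DsRed ratio, PSI derived from sequencing read proportions per bin multiplied by bin number.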

Question: Which protein stability index does the source give for QIRYHCKECGKVFSQSAGLIQHQR here?
Answer: 2.81

Question: With QLRYHCKECGKVFSQSAGLIQHQR as the variant, how does the protein stability index read?
Answer: 2.81

Question: For QMRYHCKECGKVFSQSAGLIQHQR, which protein stability index is on record?
Answer: 3.1

Question: Which protein stability index does the source give for QNRYHCKECGKVFSQSAGLIQHQR here?
Answer: 2.86

Question: Which protein stability index does the source give for QPRYHCKECGKVFSQSAGLIQHQR here?
Answer: 3.07

Question: With QQRYHCKECGKVFSQSAGLIQHQR as the variant, how does the protein stability index read?
Answer: 3.04

Question: With QRRYHCKECGKVFSQSAGLIQHQR as the variant, how does the protein stability index read?
Answer: 2.76

Question: For QSRYHCKECGKVFSQSAGLIQHQR, which protein stability index is on record?
Answer: 2.48

Question: With QTRYHCKECGKVFSQSAGLIQHQR as the variant, how does the protein stability index read?
Answer: 2.24

Question: Which protein stability index does the source give for QVRYHCKECGKVFSQSAGLIQHQR here?
Answer: 2.58

Question: For QWRYHCKECGKVFSQSAGLIQHQR, which protein stability index is on record?
Answer: 2.17

Question: For QYRYHCKECGKVFSQSAGLIQHQR, which protein stability index is on record?
Answer: 2.6

Question: For QKAYHCKECGKVFSQSAGLIQHQR, which protein stability index is on record?
Answer: 3.18

Question: With QKCYHCKECGKVFSQSAGLIQHQR as the variant, how does the protein stability index read?
Answer: 3.48

Question: With QKDYHCKECGKVFSQSAGLIQHQR as the variant, how does the protein stability index read?
Answer: 2.35

Question: With QKEYHCKECGKVFSQSAGLIQHQR as the variant, how does the protein stability index read?
Answer: 3.26

Question: For QKFYHCKECGKVFSQSAGLIQHQR, which protein stability index is on record?
Answer: 3.6

Question: For QKGYHCKECGKVFSQSAGLIQHQR, which protein stability index is on record?
Answer: 2.93

Question: Which protein stability index does the source give for QKHYHCKECGKVFSQSAGLIQHQR here?
Answer: 2.92

Question: Which protein stability index does the source give for QKIYHCKECGKVFSQSAGLIQHQR here?
Answer: 3.55

Question: Which protein stability index does the source give for QKKYHCKECGKVFSQSAGLIQHQR here?
Answer: 3.23

Question: Which protein stability index does the source give for QKLYHCKECGKVFSQSAGLIQHQR here?
Answer: 3.58

Question: For QKMYHCKECGKVFSQSAGLIQHQR, which protein stability index is on record?
Answer: 3.23

Question: Which protein stability index does the source give for QKNYHCKECGKVFSQSAGLIQHQR here?
Answer: 2.87

Question: Which protein stability index does the source give for QKPYHCKECGKVFSQSAGLIQHQR here?
Answer: 2.98

Question: For QKQYHCKECGKVFSQSAGLIQHQR, which protein stability index is on record?
Answer: 3.33

Question: For QKSYHCKECGKVFSQSAGLIQHQR, which protein stability index is on record?
Answer: 3.12

Question: Which protein stability index does the source give for QKTYHCKECGKVFSQSAGLIQHQR here?
Answer: 3.59

Question: Which protein stability index does the source give for QKVYHCKECGKVFSQSAGLIQHQR here?
Answer: 3.2

Question: For QKWYHCKECGKVFSQSAGLIQHQR, which protein stability index is on record?
Answer: 3.52

Question: Which protein stability index does the source give for QKYYHCKECGKVFSQSAGLIQHQR here?
Answer: 3.52

Question: For QKRAHCKECGKVFSQSAGLIQHQR, which protein stability index is on record?
Answer: 1.99

Question: With QKRCHCKECGKVFSQSAGLIQHQR as the variant, how does the protein stability index read?
Answer: 2.41

Question: With QKRDHCKECGKVFSQSAGLIQHQR as the variant, how does the protein stability index read?
Answer: 2.48

Question: With QKREHCKECGKVFSQSAGLIQHQR as the variant, how does the protein stability index read?
Answer: 2.15

Question: With QKRFHCKECGKVFSQSAGLIQHQR as the variant, how does the protein stability index read?
Answer: 2.72

Question: For QKRGHCKECGKVFSQSAGLIQHQR, which protein stability index is on record?
Answer: 2.14

Question: Which protein stability index does the source give for QKRHHCKECGKVFSQSAGLIQHQR here?
Answer: 2.47

Question: Which protein stability index does the source give for QKRIHCKECGKVFSQSAGLIQHQR here?
Answer: 2.4

Question: Which protein stability index does the source give for QKRKHCKECGKVFSQSAGLIQHQR here?
Answer: 2.65

Question: For QKRLHCKECGKVFSQSAGLIQHQR, which protein stability index is on record?
Answer: 2.4

Question: Which protein stability index does the source give for QKRMHCKECGKVFSQSAGLIQHQR here?
Answer: 2.17

Question: Which protein stability index does the source give for QKRNHCKECGKVFSQSAGLIQHQR here?
Answer: 2.39

Question: With QKRPHCKECGKVFSQSAGLIQHQR as the variant, how does the protein stability index read?
Answer: 2.47

Question: With QKRQHCKECGKVFSQSAGLIQHQR as the variant, how does the protein stability index read?
Answer: 2.42

Question: Which protein stability index does the source give for QKRRHCKECGKVFSQSAGLIQHQR here?
Answer: 1.98

Question: With QKRSHCKECGKVFSQSAGLIQHQR as the variant, how does the protein stability index read?
Answer: 2.11

Question: With QKRTHCKECGKVFSQSAGLIQHQR as the variant, how does the protein stability index read?
Answer: 1.97

Question: For QKRVHCKECGKVFSQSAGLIQHQR, which protein stability index is on record?
Answer: 2.25

Question: Which protein stability index does the source give for QKRWHCKECGKVFSQSAGLIQHQR here?
Answer: 2.86

Question: For QKRYACKECGKVFSQSAGLIQHQR, which protein stability index is on record?
Answer: 3.25

Question: For QKRYCCKECGKVFSQSAGLIQHQR, which protein stability index is on record?
Answer: 3.34

Question: With QKRYDCKECGKVFSQSAGLIQHQR as the variant, how does the protein stability index read?
Answer: 2.37

Question: For QKRYECKECGKVFSQSAGLIQHQR, which protein stability index is on record?
Answer: 3.62

Question: For QKRYFCKECGKVFSQSAGLIQHQR, which protein stability index is on record?
Answer: 3.01

Question: Which protein stability index does the source give for QKRYGCKECGKVFSQSAGLIQHQR here?
Answer: 2.23

Question: Which protein stability index does the source give for QKRYICKECGKVFSQSAGLIQHQR here?
Answer: 3.91

Question: For QKRYKCKECGKVFSQSAGLIQHQR, which protein stability index is on record?
Answer: 3.92

Question: With QKRYLCKECGKVFSQSAGLIQHQR as the variant, how does the protein stability index read?
Answer: 3.75

Question: For QKRYMCKECGKVFSQSAGLIQHQR, which protein stability index is on record?
Answer: 4.01

Question: For QKRYNCKECGKVFSQSAGLIQHQR, which protein stability index is on record?
Answer: 2.77

Question: With QKRYPCKECGKVFSQSAGLIQHQR as the variant, how does the protein stability index read?
Answer: 3.1

Question: With QKRYQCKECGKVFSQSAGLIQHQR as the variant, how does the protein stability index read?
Answer: 3.88

Question: With QKRYRCKECGKVFSQSAGLIQHQR as the variant, how does the protein stability index read?
Answer: 3.9

Question: Which protein stability index does the source give for QKRYSCKECGKVFSQSAGLIQHQR here?
Answer: 2.94

Question: With QKRYTCKECGKVFSQSAGLIQHQR as the variant, how does the protein stability index read?
Answer: 3.23

Question: For QKRYVCKECGKVFSQSAGLIQHQR, which protein stability index is on record?
Answer: 3.95

Question: With QKRYWCKECGKVFSQSAGLIQHQR as the variant, how does the protein stability index read?
Answer: 2.98

Question: Which protein stability index does the source give for QKRYYCKECGKVFSQSAGLIQHQR here?
Answer: 3.29

Question: Which protein stability index does the source give for QKRYHAKECGKVFSQSAGLIQHQR here?
Answer: 2.63

Question: Which protein stability index does the source give for QKRYHDKECGKVFSQSAGLIQHQR here?
Answer: 3.05

Question: With QKRYHEKECGKVFSQSAGLIQHQR as the variant, how does the protein stability index read?
Answer: 3.74

Question: For QKRYHFKECGKVFSQSAGLIQHQR, which protein stability index is on record?
Answer: 2.08

Question: With QKRYHGKECGKVFSQSAGLIQHQR as the variant, how does the protein stability index read?
Answer: 2.62

Question: With QKRYHHKECGKVFSQSAGLIQHQR as the variant, how does the protein stability index read?
Answer: 2.24

Question: For QKRYHIKECGKVFSQSAGLIQHQR, which protein stability index is on record?
Answer: 2.12

Question: For QKRYHKKECGKVFSQSAGLIQHQR, which protein stability index is on record?
Answer: 2.69

Question: For QKRYHLKECGKVFSQSAGLIQHQR, which protein stability index is on record?
Answer: 2.31

Question: Which protein stability index does the source give for QKRYHMKECGKVFSQSAGLIQHQR here?
Answer: 2.75

Question: Which protein stability index does the source give for QKRYHNKECGKVFSQSAGLIQHQR here?
Answer: 2.74

Question: For QKRYHPKECGKVFSQSAGLIQHQR, which protein stability index is on record?
Answer: 2.18

Question: With QKRYHQKECGKVFSQSAGLIQHQR as the variant, how does the protein stability index read?
Answer: 2.28

Question: Which protein stability index does the source give for QKRYHRKECGKVFSQSAGLIQHQR here?
Answer: 2.6

Question: Which protein stability index does the source give for QKRYHSKECGKVFSQSAGLIQHQR here?
Answer: 2.88

Question: Which protein stability index does the source give for QKRYHTKECGKVFSQSAGLIQHQR here?
Answer: 2.83

Question: For QKRYHVKECGKVFSQSAGLIQHQR, which protein stability index is on record?
Answer: 2.8

Question: With QKRYHWKECGKVFSQSAGLIQHQR as the variant, how does the protein stability index read?
Answer: 1.96

Question: Which protein stability index does the source give for QKRYHYKECGKVFSQSAGLIQHQR here?
Answer: 1.73

Question: Which protein stability index does the source give for QKRYHCAECGKVFSQSAGLIQHQR here?
Answer: 2.95

Question: For QKRYHCCECGKVFSQSAGLIQHQR, which protein stability index is on record?
Answer: 2.65

Question: With QKRYHCDECGKVFSQSAGLIQHQR as the variant, how does the protein stability index read?
Answer: 3.15

Question: With QKRYHCEECGKVFSQSAGLIQHQR as the variant, how does the protein stability index read?
Answer: 3.52

Question: With QKRYHCFECGKVFSQSAGLIQHQR as the variant, how does the protein stability index read?
Answer: 2.53

Question: With QKRYHCGECGKVFSQSAGLIQHQR as the variant, how does the protein stability index read?
Answer: 2.92

— the supplement of paper PMC10567573
